Consider one sequence from paper PMC3167817.

Data set [1] addresses EGFR on NIH/EGFR cells (human) (UniProt P00533). The data set can be described thus: cell binding, radiolabeled aptamer. To be noted: apparent Kd; parental NIH3T3 not bound; 2'-fluoro pyrimidines; Filter binding: 1 nM radiolabeled RNA, PBS + 0.01% BSA, 15 min, 37 C (5 mM DTT for monomer); CL4sc background subtracted; pull-down: 200 nM aptamer on A549 ….
Data set [2] deals with EGFR on A549 cells (endogenous) (human) (UniProt P00533). The data set can be described thus: cell binding, radiolabeled aptamer. Conditions: A549 cells; binding decreased by EGFR shRNA and 1 uM EGF; 2'-fluoro pyrimidines; Filter binding: 1 nM radiolabeled RNA, PBS + 0.01% BSA, 15 min, 37 C (5 mM DTT for monomer); CL4sc background subtracted; pull-down: 200 nM aptamer on A549 ….

Turning to “GCCUUAGUAACGUGCUUUGAUGUCGAUUCGACAGGAGGC [CL4]”, the Kd turned out to be 60 nM in data set [1] and 38 nM in data set [2].
